Values belong to the binder of their own block, whether it stands above or below them.
Assays:
[1] = molecular target: T1, human PD-L1 (construct not stated) (human, UniProt Q9NZQ7 19-239, limits assumed); assay: SPR Biacore, affinity ranking
T1 construct: also called B7-H1 (PD-L1); PD-L1 protein

human PD-L1-Fc protein = molecular target: T2, human PD-L1-Fc protein (human, UniProt Q9NZQ7 19-239); assay: ELISA on coated human PD-L1-Fc
T2 construct: Coated on ELISA plates; also called huPD-L1; not shown: Fc part
Protocol: To evaluate the antigen binding activity, the antibodies were subjected to ELISA test. Briefly, microtiter plates were coated with human PD-L1-Fc protein at 2 μg/ml in PBS, 100 μl/well at 4° C. overnight, then blocked with 100 μl/well of 5% BSA. 4-fold dilutions of humanized antibodies starting from 10 μg/ml were added to each well and incubated for 1-2 hours at RT. The plates were washed with PBS/Tween and then incubate with […] antibody conjugated with Horse Radish Peroxidase (HRP) for 1 hour at RT. After washing, the plates were developed with TMB substrate and analyzed by spectrophotometer at OD 450-630 nm.

[2] = molecular target: T3, human PD-L1 expressed on mammalian cells (human, UniProt Q9NZQ7 19-290); assay: cell-based binding on Raji-PDL1 cells (FACS by paragraph 328; the y axis of the sheet is labelled IL2 (ng/ml)); EC50 table has no unit, x axis Concentration (nM)
T3 construct: whole, on cells; also called PDL1-CHOK1 cells; PDL1-Raji cells
Protocol: To evaluate the antigen binding property, the antibodies were analyzed for its binding to mammalian expressed PD-L1 by FACS. Briefly, PDL1-Raji cells were firstly incubated with 5-fold serious diluted humanized antibodies starting at 2 µg/ml at RT for 1 hour. After wash by FACS buffer (PBS with 2% FBS), the Alexa 488-anti-human IgG antibody was added to each well and incubated at RT for 1 hour. The MFI of Alexa 488 was evaluated by FACSAriaIII.

[3] = molecular target: T4, human LAG3-His protein (Sinobio, 16498-H08H) (human, UniProt P18627 23-450); assay: ELISA on coated human LAG3-His, panel LAG3
T4 construct: also called human LAG3 protein; not shown: His tag
T4 sequence (looked up): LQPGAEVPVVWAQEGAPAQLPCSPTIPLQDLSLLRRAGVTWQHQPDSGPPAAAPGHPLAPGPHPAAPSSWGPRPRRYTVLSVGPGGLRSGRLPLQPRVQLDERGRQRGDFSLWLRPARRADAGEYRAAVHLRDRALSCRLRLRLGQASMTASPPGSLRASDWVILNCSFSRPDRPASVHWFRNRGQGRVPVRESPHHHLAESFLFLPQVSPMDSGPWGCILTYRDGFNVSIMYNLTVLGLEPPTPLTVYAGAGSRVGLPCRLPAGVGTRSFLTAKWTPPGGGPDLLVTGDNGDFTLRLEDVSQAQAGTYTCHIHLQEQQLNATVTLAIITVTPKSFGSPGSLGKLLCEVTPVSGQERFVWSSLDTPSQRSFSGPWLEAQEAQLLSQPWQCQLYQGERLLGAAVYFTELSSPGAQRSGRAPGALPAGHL
Procedure, shortened: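 Bispecific antibodies were tested by ELISA on plates coated overnight at 4° C with human LAG3-His protein at 0.5 μg/ml in PBS (100 μl/well), then blocked with 5% BSA. Four-fold antibody dilutions starting from 100 nM were incubated for 1-2 hours at RT. EC50 was read off the binding curve.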

[4] = molecular target: T5, recombinant his-tag human LAG3-ECD protein (human, UniProt P18627 23-450); assay: SPR Biacore T200, capture method as Example 2.7
T5 construct: extracellular domain; not shown: his tag
T5 sequence (looked up): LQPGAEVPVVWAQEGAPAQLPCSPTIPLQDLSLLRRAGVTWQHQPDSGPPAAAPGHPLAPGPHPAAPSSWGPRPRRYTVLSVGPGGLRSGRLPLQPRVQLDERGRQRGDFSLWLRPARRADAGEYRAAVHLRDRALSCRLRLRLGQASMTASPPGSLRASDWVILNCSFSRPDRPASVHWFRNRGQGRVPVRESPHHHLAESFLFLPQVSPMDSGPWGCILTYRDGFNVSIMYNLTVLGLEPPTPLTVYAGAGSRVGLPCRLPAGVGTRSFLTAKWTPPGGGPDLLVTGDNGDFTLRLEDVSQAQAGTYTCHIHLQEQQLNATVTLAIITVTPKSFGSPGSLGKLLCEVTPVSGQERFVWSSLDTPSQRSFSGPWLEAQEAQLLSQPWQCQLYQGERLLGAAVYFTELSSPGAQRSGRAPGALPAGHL

[5] = molecular target: T6, recombinant human LAG-3-ECD-human IgG1 fusion protein (human, UniProt P18627 23-450, biotin-labeled in the MHC class II blocking assays); assay: ELISA as Example 2.2, coated human LAG3 ECD-Fc
T6 construct: extracellular domain; also called LAG-3-huFc; LAG-3-ECD-huFc; not shown: human IgG1 Fc
T6 sequence (looked up): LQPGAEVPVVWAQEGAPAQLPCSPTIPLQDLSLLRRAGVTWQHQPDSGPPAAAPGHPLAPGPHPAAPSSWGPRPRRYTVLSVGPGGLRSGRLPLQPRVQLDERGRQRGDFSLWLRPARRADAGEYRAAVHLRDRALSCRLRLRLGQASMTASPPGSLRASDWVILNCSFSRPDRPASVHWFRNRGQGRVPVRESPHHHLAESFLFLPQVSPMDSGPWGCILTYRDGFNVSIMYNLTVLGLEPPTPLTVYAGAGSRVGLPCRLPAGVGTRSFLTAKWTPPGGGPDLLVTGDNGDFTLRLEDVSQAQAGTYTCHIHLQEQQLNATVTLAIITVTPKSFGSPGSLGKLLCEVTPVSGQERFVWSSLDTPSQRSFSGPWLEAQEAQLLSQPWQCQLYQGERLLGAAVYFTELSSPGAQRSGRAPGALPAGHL
Protocol: To evaluate the capability of the anti-LAG-3 antibodies to bind to human, rat, and mouse LAG3 the antibodies identified in Example 2.1 were evaluated for their binding property through ELISA. The human, rat and mouse LAG3 ECD-Fc protein were coated to ELISA plate at 1 μg/ml with 100 μl/well. Antibodies from Example 1 were serially diluted with ELISA diluent buffer. […] The resulting plates were washed and then labeled with anti-human IgG(Fab)-HRP antibody. The S31 can only bind to human LAG3. The S27 and T99 can bind to human LAG3 and rat/mouse LAG3 with lower potency. The S119 antibody can bind to human, rat and mouse LAG3 at high potency (FIGS. 22A-22D).

[6] = molecular target: T5, recombinant his-tag human LAG3-ECD …; assay: Biacore, antibody captured, His-tag human LAG3-ECD injected (procedure of Example 2.16(B))
Protocol: (§1) The binding of B3807 to recombinant His-tag human LAG3-ECD protein was examined by Biacore T200 using a capture method. B3807 was captured using protein A which was immobilized on CM5 sensor chip. Serial concentrations of his-tag human LAG3-ECD protein (0-12 nM) were injected over capture antibodies at the flow rate of 30 μl/min. The dissociation phase was 900 s or 550 s.
(§2) B3807 was used in the following examples for further testing and preparing bispecific antibodies.

human LAG3 on cells [7] = molecular target: T7, human LAG3 on cells (human, UniProt P18627 23-525); assay: flow cytometry (MFI) on activated CD4 T cells, lower panel; EC50 table has no unit, x axis Concentration (nM); Table 31 of the text prints the rounded 0.33
T7 construct: whole, on cells; also called Jurkat-LAG3
T7 sequence (looked up): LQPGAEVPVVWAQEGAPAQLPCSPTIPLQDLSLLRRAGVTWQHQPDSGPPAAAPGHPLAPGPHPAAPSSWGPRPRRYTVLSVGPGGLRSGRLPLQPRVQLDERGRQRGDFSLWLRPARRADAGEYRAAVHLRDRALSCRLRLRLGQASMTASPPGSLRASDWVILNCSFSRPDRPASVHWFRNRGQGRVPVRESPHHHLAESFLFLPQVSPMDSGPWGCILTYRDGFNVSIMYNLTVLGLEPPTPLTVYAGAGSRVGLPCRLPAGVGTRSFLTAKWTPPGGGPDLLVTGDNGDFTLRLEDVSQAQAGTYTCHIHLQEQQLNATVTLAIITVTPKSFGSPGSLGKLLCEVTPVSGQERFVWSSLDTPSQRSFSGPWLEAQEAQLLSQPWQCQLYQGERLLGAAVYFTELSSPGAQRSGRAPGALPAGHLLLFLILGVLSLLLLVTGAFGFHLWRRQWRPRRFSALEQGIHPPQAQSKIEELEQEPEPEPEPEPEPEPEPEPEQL
Protocol: (§3) To further confirm affinity matured anti-LAG-3 antibodies could bind to cell-derived human LAG3, both inducible hLAG3 expressed Jurkat cells and activated PBMCs were used to test the binding capability of B3807b and B3810. In brief, Jurkat cells were resuspended in FACS buffer. Anti-LAG3 antibodies and isotype control were 4-fold serially diluted in FACS buffer with a dose ranging from 20 nM to 30 pM. The serially diluted antibodies were added to the cell suspension and incubated for 30 minutes on ice. Then after removal of unbound antibodies, cells were stained with anti-human IgG conjugated with Alexa Fluor 633 (Thermo, A21091). Fluorescence measurement was acquired on FACSCelesta flow cytometer and analyzed in Flowjo to determine the mean fluorescence intensities (MFI). To test anti-LAG3 antibodies' ability of binding to native human LAG3, PBMCs from health donor were stimulated with anti-CD3 (BD, 555336) and anti-CD28 (BD, 555725) both at a concentration of 1 ug/ml. Following 3 days' stimulation, cells were harvested and incubated with anti-LAG3 antibodies for 30 mins on ice. The cells were stained with anti-human CD4 and anti-human IgG. Analysis of antibodies binding to CD4+ cells were carried out on FACSCelesta flow cytometry. […] FIG. 31 is a graph showing the binding curve of anti-LAG3 antibodies.

human LAG3 on cells [8] = molecular target: T7, human LAG3 on cells; assay: flow cytometry (MFI) on Jurkat-LAG3 cells, upper panel; EC50 table has no unit, x axis Concentration (nM); Table 31 of the text prints the rounded 0.4
Protocol: as §3

human LAG3 on cells [9] = molecular target: T7, human LAG3 on cells; assay: flow cytometry on hLAG3-expressing Jurkat cells
Protocol: as §3

human LAG3 on cells [10] = molecular target: T7, human LAG3 on cells; assay: flow cytometry on activated CD4 T cells
Protocol: as §3

[11] = molecular target: T5, recombinant his-tag human LAG3-ECD …; assay: Biacore, antibody captured, His-tag human LAG3-ECD injected (procedure of Example 2.16(B)); column kd(1/s)
Protocol: as §1, §2

[12] = molecular target: T5, recombinant his-tag human LAG3-ECD …; assay: Biacore, antibody captured, His-tag human LAG3-ECD injected (procedure of Example 2.16(B)); column ka (1/Ms)
Protocol: as §1, §2

human LAG3 on cells [13] = molecular target: T7, human LAG3 on cells; assay: flow cytometry (MFI) on activated CD4 T cells, lower panel; EC50 table has no unit, x axis Concentration (nM); Table 31 of the text prints the rounded 0.39
Protocol: as §3

human LAG3 on cells [14] = molecular target: T7, human LAG3 on cells; assay: flow cytometry (MFI) on Jurkat-LAG3 cells, upper panel; EC50 table has no unit, x axis Concentration (nM); Table 31 of the text prints the rounded 0.5
Protocol: as §3

T1 sequence (Q9NZQ7 19-239 limits assumed): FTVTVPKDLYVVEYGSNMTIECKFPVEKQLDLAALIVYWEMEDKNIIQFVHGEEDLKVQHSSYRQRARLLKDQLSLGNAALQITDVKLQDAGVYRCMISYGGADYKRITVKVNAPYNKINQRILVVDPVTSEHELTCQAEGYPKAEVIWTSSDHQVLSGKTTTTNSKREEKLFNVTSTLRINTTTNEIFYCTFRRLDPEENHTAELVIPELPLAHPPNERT
T3 sequence (Q9NZQ7 19-290): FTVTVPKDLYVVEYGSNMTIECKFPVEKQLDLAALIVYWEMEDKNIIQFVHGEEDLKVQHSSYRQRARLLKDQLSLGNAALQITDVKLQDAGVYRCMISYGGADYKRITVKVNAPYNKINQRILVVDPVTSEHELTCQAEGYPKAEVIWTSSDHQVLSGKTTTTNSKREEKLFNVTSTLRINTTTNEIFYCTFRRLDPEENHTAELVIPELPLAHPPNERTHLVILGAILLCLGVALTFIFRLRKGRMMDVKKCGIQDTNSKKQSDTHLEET
T2 sequence (Q9NZQ7 19-239 limits assumed): as the sequence (Q9NZQ7 19-239 limits assumed) above

Kd [1]: 1.02 nM | koff [1]: 0.000246 s⁻¹ | kon [1]: 242000 M⁻¹ s⁻¹ | EC50 (read off the curve) (human PD-L1-Fc protein): ~0.2 µg/mL | EC50 [2]: 1.2 nM
B1: B6 (antibody, V domains shown)
VH: EVQLVESGGGLVQPGGSLRLSCAASGFTFSSYDMSWVRQAPGKSLEWVATISDAGGYIYYRDSVKGRFTISRDNAKNSLYLQMNSLRDEDTAVYICARELPWRYALDYWGQGTTVTVSS
VL: DIQMTQSPSSLSASVGDRVTITCKASQDVTPAVAWYQQKPGKAPKLLIYSTSSRYTGVPSRFSGSGSGTDFTFTISSLQPEDIATYYCQQHYTTPLTFGQGTKLEIK
notes: also called B6 monoclonal antibody

EC50 (read off the curve) [3]: ~0.4 nM
B2: 147(H3807)xH12 (bispecific antibody, human IgG4 S228P, kappa)
heavy: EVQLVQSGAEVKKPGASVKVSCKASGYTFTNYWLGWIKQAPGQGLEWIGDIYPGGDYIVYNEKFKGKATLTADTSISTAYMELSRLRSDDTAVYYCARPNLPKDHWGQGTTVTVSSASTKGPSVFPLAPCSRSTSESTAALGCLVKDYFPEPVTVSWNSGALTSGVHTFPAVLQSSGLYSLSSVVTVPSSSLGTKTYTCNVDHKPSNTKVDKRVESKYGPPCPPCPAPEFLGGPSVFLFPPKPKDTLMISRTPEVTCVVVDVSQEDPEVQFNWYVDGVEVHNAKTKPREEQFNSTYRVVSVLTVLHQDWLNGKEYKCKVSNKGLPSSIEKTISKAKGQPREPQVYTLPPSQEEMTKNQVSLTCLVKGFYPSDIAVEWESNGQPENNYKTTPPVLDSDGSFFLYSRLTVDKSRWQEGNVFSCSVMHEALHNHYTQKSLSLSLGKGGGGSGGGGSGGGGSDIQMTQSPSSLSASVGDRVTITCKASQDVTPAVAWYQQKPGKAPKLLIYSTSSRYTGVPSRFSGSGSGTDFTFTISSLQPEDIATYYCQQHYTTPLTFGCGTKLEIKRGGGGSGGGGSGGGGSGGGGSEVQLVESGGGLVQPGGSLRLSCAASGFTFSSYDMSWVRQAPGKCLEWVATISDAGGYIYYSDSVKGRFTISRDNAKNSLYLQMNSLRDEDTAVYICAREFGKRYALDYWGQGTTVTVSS
light: DIVMTQSPLSLPVTPGEPASISCRSSKSLLHSQGITYLYWYLQKPGQSPQLLIYQVSNLASGVPDRFSGSGSGTDFTLKISRVEAEDVGVYYCAQYLELPWTFGGGTKVEIKRTVAAPSVFIFPPSDEQLKSGTASVVCLLNNFYPREAKVQWKVDNALQSGNSQESVTEQDSKDSTYSLSSTLTLSKADYEKHKVYACEVTHQGLSSPVTKSFNRGEC

Kd [4]: 0.51 nM | koff [4]: 0.002 s⁻¹ | kon [4]: 4e+06 M⁻¹ s⁻¹ | EC50 [5]: 0.41 nM | Kd [6]: 0.968 nM | EC50 (human LAG3 on cells [7]): 0.333 nM | EC50 (human LAG3 on cells [8]): 0.39 nM | EC50 (human LAG3 on cells [9]): 0.4 nM | EC50 (human LAG3 on cells [10]): 0.33 nM | koff [11]: 0.00334 s⁻¹ | kon [12]: 3.46e+06 M⁻¹ s⁻¹
B3: 147H 3807b (antibody, V domains shown)
VH: EVQLVQSGAEVKKPGASVKVSCKASGYTFTNYWLGWIKQAPGQGLEWIGDIYPGGDYIVYNEKFKGKATLTADTSISTAYMELSRLRSDDTAVYYCARPNLPKDHWGQGTTVTVSS
VL: DIVMTQSPLSLPVTPGEPASISCRSSKSLLHSNAITYLYWYLQKPGQSPQLLIYQVSNLASGVPDRFSGSGSGTDFTLKISRVEAEDVGVYYCAQYLELPWTFGGGTKVEIK
notes: also called B3807b

EC50 (human LAG3 on cells [13]): 0.391 nM | Kd [4]: 0.41 nM | koff [4]: 0.0019 s⁻¹ | kon [4]: 4.7e+06 M⁻¹ s⁻¹ | EC50 [5]: 0.49 nM | EC50 (human LAG3 on cells [14]): 0.492 nM | EC50 (human LAG3 on cells [9]): 0.5 nM | EC50 (human LAG3 on cells [10]): 0.39 nM
B4: 147H 3810 (antibody, V domains shown)
VH: EVQLVQSGAEVKKPGASVKVSCKASGYLFTNYWLGWIKQAPGQGLEWIGDIYPGGDYIVYNEKFKGKATLTADTSISTAYMELSRLRSDDTAVYYCARPNLPKDHWGQGTTVTVSS
VL: DIVMTQSPLSLPVTPGEPASISCRSSKSLLHSNAITYLYWYLQKPGQSPQLLIYQVSNLATGVPDRFSGSGSGTDFTLKISRVEAEDVGVYYCAQYLELPWTFGGGTKVEIK
notes: also called B3810
